± gives the standard deviation of the averaged measurements.
Test system: Saccharomyces cerevisiae
Test: protein stability index of tFT-peptide fusion (C-terminal peptide) (PSI (0-1 scale)); higher = more stable (slower turnover)
Conditions: genetic background: doa10 deletion; temperature: 30 C
Procedure: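 MPS profiling in S. cerevisiae of the tFT-X12 degron library: putative degron peptides plus stable controls, 12 aa, fused to the C-terminus of a sfGFP-mCherry timer. Cells are FACS-sorted into 8 mCherry/sfGFP bins and deep-sequenced. PSI runs from 0 (unstable) to 1 (stable). Backgrounds are wild type, das1Δ and doa10Δ at 30 °C, and wild type, das1Δ, cdc34-1 and cdc53-1 at 37 °C; 2-3 technical replicates each.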
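Also: PSI is a weighted mean of sequencing reads over stability bins, variants kept only with over 10 reads, mCherry proximal and sfGFP distal, peptide attached via GGGS linker.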

| Sequence | protein stability index |
| --- | --- |
| FVFFRFSLLFFF | 0.269 ± 0.0034 |
| FVSVAGFIVVVV | 0.291 ± 0.013 |
| FVVGFVCSMVWG | 0.0599 ± 0.0055 |
| FVVHPARYYLVL | 0.355 ± 0.0048 |
| FVVSCLSWVFLF | 0.101 ± 0.022 |
| FVVWKDVLVMVR | 0.158 ± 0.0054 |
| FWCVFVFFVCVG | 0.231 ± 0.0025 |
| FWGRAGVWRLKG | 0.228 ± 0.0067 |
| FWSARAVVWWCW | 0.449 ± 0.012 |
| FYFRSSFFTICF | 0.4318 ± 0.0037 |
| FYPLPASIPDFA | 0.675 ± 0.022 |
| FYSLVQAWSKAP | 0.3898 ± 0.0019 |
| GCGWVFWVVDWG | 0.369 ± 0.01 |
| GCVMSVCSLAVS | 0.453 ± 0.025 |
| GCYWPKTLGILC | 0.346 ± 0.0062 |
| GGFLLRGLFLFL | 0.542 ± 0.025 |
| GGHGGRRRKGVG | 0.409 ± 0.0082 |
| GGMVRSCLWCFV | 0.322 ± 0.011 |
| GGSHVWKFYRNF | 0.224 ± 0.0086 |
| GGVFYVFFVFVG | 0.128 ± 0.0049 |

| Sequence | protein stability index |
| --- | --- |
| GGVVAACRGGIG | 0.361 ± 0.022 |
| GGVWSAFAVWVC | 0.0761 ± 0.0025 |
| GGWGSSLGVWVG | 0.178 ± 0.017 |
| GIANHAMVIVVL | 0.278 ± 0.0066 |
| GIPVRRLLFLVA | 0.145 ± 0.0062 |
| GKWVWSSFVWFG | 0.0899 ± 0.0064 |
| GLFCCFLCLSVF | 0.2 ± 0.004 |
| GLFVGCWVFLVL | 0.294 ± 0.0069 |
| GLIICRRCLWCC | 0.1721 ± 0.00088 |
| GLLSLSGLRWFC | 0.163 ± 0.021 |
| GLSWRLVWVVII | 0.0916 ± 0.006 |
| GMNGLFFIAMLG | 0.195 ± 0.016 |
| GRLVPVILLKLV | 0.0719 ± 0.018 |
| GRRPVVDFLPCL | 0.7146 ± 0.0027 |
| GSITFFKMVQSG | 0.376 ± 0.014 |
| GSLPERPLRYVC | 0.1 ± 0.028 |
| GSRRYYFTWVYQ | 0.0716 ± 0.016 |
| GTEFSNVITYLV | 0.34 ± 0.0043 |
| GTLVFTYLVLRC | 0.365 ± 0.027 |
| GTRAGNPDRQRS | 0.656 ± 0.021 |

| Sequence | protein stability index |
| --- | --- |
| GVRAGVRRAGVG | 0.3927 ± 0.0033 |
| GVRRRQLIWSVC | 0.145 ± 0.0088 |
| GVVCWLVVTGFL | 0.255 ± 0.0087 |
| GVVVGVLLVCGW | 0.223 ± 0.016 |
| HCNRLIFWYKCT | 0.189 ± 0.0086 |
| HDLRRRVVSVMV | 0.258 ± 0.013 |
| HFLRYCSWFGLL | 0.142 ± 0.014 |
| HNLIRKHAKESS | 0.171 ± 0.036 |
| HPLYWRCVVVLN | 0.073 ± 0.012 |
| HSPPVPFPPPTS | 0.688 ± 0.012 |
| HVRLRFQPVLFV | 0.356 ± 0.01 |
| HVSVIRRGICCA | 0.233 ± 0.0093 |
| ICQLLKFPLFWC | 0.311 ± 0.019 |
| ICSRCLVTVLSC | 0.198 ± 0.0024 |
| ICWVSLYFSMLV | 0.3348 ± 0.00038 |
| IFAWPFSATIPW | 0.706 ± 0.0086 |
| IFFYPFLIFCFV | 0.2722 ± 0.00072 |
| IFVLLSYYPLFV | 0.288 ± 0.016 |
| IGSARIKLLCYH | 0.124 ± 0.017 |
| ILHRRCGLLLQI | 0.273 ± 0.0094 |

Same assay, conditions: genetic background: wild type; temperature: 30 C

| Sequence | protein stability index |
| --- | --- |
| FVFFRFSLLFFF | 0.225 ± 0.027 |
| FVSVAGFIVVVV | 0.28 ± 0.034 |
| FVVGFVCSMVWG | 0.0702 ± 0.019 |
| FVVHPARYYLVL | 0.385 ± 0.02 |
| FVVSCLSWVFLF | 0.114 ± 0.025 |
| FVVWKDVLVMVR | 0.192 ± 0.034 |
| FWCVFVFFVCVG | 0.238 ± 0.023 |
| FWGRAGVWRLKG | 0.276 ± 0.026 |
| FWSARAVVWWCW | 0.449 ± 0.027 |
| FYFRSSFFTICF | 0.352 ± 0.014 |
| FYPLPASIPDFA | 0.6686 ± 0.0026 |
| FYSLVQAWSKAP | 0.415 ± 0.027 |
| GCGWVFWVVDWG | 0.398 ± 0.027 |
| GCVMSVCSLAVS | 0.458 ± 0.011 |
| GCYWPKTLGILC | 0.378 ± 0.025 |
| GGFLLRGLFLFL | 0.52 ± 0.022 |
| GGHGGRRRKGVG | 0.381 ± 0.0054 |
| GGMVRSCLWCFV | 0.357 ± 0.018 |
| GGSHVWKFYRNF | 0.285 ± 0.027 |
| GGVFYVFFVFVG | 0.153 ± 0.023 |

| Sequence | protein stability index |
| --- | --- |
| GGVVAACRGGIG | 0.348 ± 0.01 |
| GGVWSAFAVWVC | 0.0784 ± 0.013 |
| GGWGSSLGVWVG | 0.217 ± 0.015 |
| GIANHAMVIVVL | 0.312 ± 0.017 |
| GIPVRRLLFLVA | 0.17 ± 0.024 |
| GKWVWSSFVWFG | 0.0965 ± 0.021 |
| GLFCCFLCLSVF | 0.204 ± 0.026 |
| GLFVGCWVFLVL | 0.297 ± 0.037 |
| GLIICRRCLWCC | 0.182 ± 0.021 |
| GLLSLSGLRWFC | 0.19 ± 0.035 |
| GLSWRLVWVVII | 0.0531 ± 0.0056 |
| GMNGLFFIAMLG | 0.195 ± 0.029 |
| GRLVPVILLKLV | 0.0651 ± 0.015 |
| GRRPVVDFLPCL | 0.719 ± 0.037 |
| GSITFFKMVQSG | 0.417 ± 0.028 |
| GSLPERPLRYVC | 0.0973 ± 0.013 |
| GSRRYYFTWVYQ | 0.0885 ± 0.015 |
| GTEFSNVITYLV | 0.389 ± 0.027 |
| GTLVFTYLVLRC | 0.167 ± 0.035 |
| GTRAGNPDRQRS | 0.632 ± 0.022 |

| Sequence | protein stability index |
| --- | --- |
| GVRAGVRRAGVG | 0.382 ± 0.0068 |
| GVRRRQLIWSVC | 0.164 ± 0.039 |
| GVVCWLVVTGFL | 0.3 ± 0.019 |
| GVVVGVLLVCGW | 0.265 ± 0.013 |
| HCNRLIFWYKCT | 0.224 ± 0.032 |
| HDLRRRVVSVMV | 0.297 ± 0.03 |
| HFLRYCSWFGLL | 0.171 ± 0.017 |
| HNLIRKHAKESS | 0.249 ± 0.016 |
| HPLYWRCVVVLN | 0.066 ± 0.031 |
| HSPPVPFPPPTS | 0.672 ± 0.017 |
| HVRLRFQPVLFV | 0.382 ± 0.026 |
| HVSVIRRGICCA | 0.278 ± 0.015 |
| ICQLLKFPLFWC | 0.288 ± 0.026 |
| ICSRCLVTVLSC | 0.217 ± 0.039 |
| ICWVSLYFSMLV | 0.333 ± 0.025 |
| IFAWPFSATIPW | 0.7 ± 0.011 |
| IFFYPFLIFCFV | 0.238 ± 0.032 |
| IFVLLSYYPLFV | 0.243 ± 0.027 |
| IGSARIKLLCYH | 0.165 ± 0.027 |
| ILHRRCGLLLQI | 0.278 ± 0.025 |

— the supplement of paper PMC10724198
